Measured values published in patent US20150307585A1 (published 2015).

Experiments:
[1] = target: T1, RAC1 P29S (Ras-related C3 botulinum toxin substrate 1) peptide on HLA-A*02:01 (human); test: multimer staining
T1 peptide: FSGEYIPTV

[2] = target: T1, RAC1 P29S (Ras-related C3 botulinum …); test: cytokine release

B1: T3/T4, chain combination TRAV5/TRBV20-1 (TCR, V domains shown)
Valpha: GEDVEQSLFLSVREGDSSVINCTYTDSSSTYLYWYKQEPGAGLQLLTYIFSNMDMKQDQRLTVLLNKKDKHLSLRIADTQTGDSAIYFCAESKRFSDGQKLLFARGTMLKVDL
Vbeta: GAVVSQHPSWVICKSGTSVKIECRSLDFQATTMFWYRQFPKQSLMLMATSNEGSKATYEQGVEKDKFLINHASLTLSTLTVTSAHPEDSSFYICSARDLITDTQYFGPGTRLTVL
B1: recognises [1].

B2: T2 (TCR, V domains shown)
Valpha: GENVEQHPSTLSVQEGDSAVIKCTYSDSASNYFPWYKQELGKGPQLIIDIRSNVGEKKDQRIAVTLNKTAKHFSLHITETQPEDSAVYFCAASRGGAQKLVFGQGTRLTINP
Vbeta: DTAVSQTPKYLVTQMGNDKSIKCEQNLGHDTMYWYKQDSKKFLKIMFSYNNKELIINETVPNRFSPKSPDKAHLNLHINSLELGDSAVYFCASSQLAGGPLYNEQFFGPGTRLTVL
B2: recognises [2].

B3: T6 (TCR, V domains shown)
Valpha: GESVGLHLPTLSVQEGDNSIINCAYSNSASDYFIWYKQESGKGPQFIIDIRSNMDKRQGQRVTVLLNKTVKHLSLQIAATQPGDSAVYFCAENRGANSKLTFGKGITLSVRP
Vbeta: DAGVIQSPRHEVTEMGQEVTLRCKPISGHNSLFWYRQTMMRGLELLIYFNNNVPIDDSGMPEDRFSAKMPNASFSTLKIQPSEPRDSAVYFCASSFTGGFYGYTFGSGTRLTVV
B3: recognises [1].

B4: T5 (TCR, V domains shown)
Valpha: GENVEQHPSTLSVQEGDSAVIKCTYSDSASNYFPWYKQELGKGPQLIIDIRSNVGEKKDQRIAVTLNKTAKHFSLHITETQPEDSAVYFCAASLGSGNTPLVFGKGTRLSVIA
Vbeta: DVKVTQSSRYLVKRTGEKVFLECVQDMDHENMFWYRQDPGLGLRLIYFSYDVKMKEKGDIPEGYSVSREKKERFSLILESASTNQTSMYLCASSLHSGRDTQYFGPGTRLTVL
B4: recognises [1].

B5: T1 (TCR, V domains shown)
Valpha: EDQVTQSPEALRLQEGESSSLNCSYTVSGLRGLFWYRQDPGKGPEFLFTLYSAGEEKEKERLKATLTKKESFLHITAPKPEDSATYLCAVQTSQGGSEKLVFGKGTKLTVNP
Vbeta: DTEVTQTPKHLVMGMTNKKSLKCEQHMGHRAMYWYKQKAKKPPELMFVYSYEKLSINESVPSRFSPECPNSSLLNLHLHALQPEDSALYLCASSQDASGIYYEQYFGPGTRLTVT
B5: recognises [2].
